Literature values as cited in article PMC7900953, “Location of a single histidine within peptide carriers increases mRNA delivery” (The Journal of Gene Medicine, 2020).
Where no end group is shown, it is not given here.

Tested on: human cells
Settings: cited from earlier work

**Q.** Which “Cytotoxicity to human cells” value does the source give for “H3k4b (KHHHKHHHKHHHKHHHK; also: four-branched lysine core)” here?
**A.** Its value is “no observed cytotoxicity to human cells”.
